From patent US20060121483A1, “Methods for detecting teneurin signalling and related screening methods” (priority 2002, published 2006)

Molecular target: TEY (teneurin-2 construct: Transmembrane, EGF-like and YD-repeats; entire long form of the extracellular domain, without cytoplasmic domain) (chicken) (UniProt Q9DER5)
Test: cell-based or functional assay

BDAD-CTEY (GAL4 binding domain and NFkB activation domain fused to full length teneurin-2) (from UniProt P04386 1-147; Q9DER5 1-2802)
Luciferase activity (GAL4 reporter; cleavage of the BDAD-teneurin-2 fusion): 6 fold
